Experimental data reported in patent US20220072087A1, “SPECIFIC COMBINATION THERAPY FOR TREATMENT OF PANCREATIC CANCER” (BioLineRx Ltd., priority 2019, published 2022).
Bridge positions count the residues as written; N and C are the ends. Square brackets hold non-standard residues; d marks the D form. * marks the point of attachment. 2Nal = N[C@@H](Cc1ccc2ccccc2c1)C(=O)O; Benzoyl(4-F) = O=C(c1ccc(F)cc1)*; Cit = NC(=O)NCCC[C@H](N)C(=O)O

Assays:
[1] = system: normal human hematopoietic cells; settings: cited from earlier work
human keratinocytes = settings: cited from earlier work
CXCR4 = CXCR4 (Homo sapiens, UniProt P61073); settings: read-out: IC50 (binds to CXCR4 with high affinity); cited from earlier work
CXCR4, sequence (P61073 whole entry, species assumed): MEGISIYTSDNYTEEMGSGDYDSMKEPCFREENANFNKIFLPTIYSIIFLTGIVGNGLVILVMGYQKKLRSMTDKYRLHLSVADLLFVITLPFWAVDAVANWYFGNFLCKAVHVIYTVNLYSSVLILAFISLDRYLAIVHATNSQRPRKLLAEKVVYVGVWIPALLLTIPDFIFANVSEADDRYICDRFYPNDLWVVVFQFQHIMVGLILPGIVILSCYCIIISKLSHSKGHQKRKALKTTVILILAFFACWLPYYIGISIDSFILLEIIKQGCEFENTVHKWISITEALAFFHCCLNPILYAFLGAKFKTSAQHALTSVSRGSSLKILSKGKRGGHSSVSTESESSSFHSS

[2] = solubility of BL-8040 powder; format: physicochemical

## BL-8040 ({Benzoyl(4-F)}-RR[2Nal]CY[Cit]K[dK]PYR[Cit]CR-NH2; disulfide 4-13 (inferred))
[1]
  effect on viability: did not affect the viability
Human keratinocytes
  effect on viability: did not affect the viability
CXCR4
  IC50: 0.54 to 4.5 nM
[2]; in 0.45% Sodium Chloride (half normal saline)
  solubility: freely soluble
[2]; in water
  solubility: freely soluble
